In PMC7116892 (Science (New York, N.Y.), 2021):

What was measured:
[1] = target: T1, Dyh5 (γ-HC), ODA heavy chain (Tetrahymena thermophila, UniProt I7M6H4 1-4168); assay: cryo-EM structure
[2] = target: T2, Dyh3 (α-HC), ODA heavy chain (Tetrahymena thermophila, UniProt Q22A67 1-4620); assay: cryo-EM structure
[3] = target: T1, Dyh5 (γ-HC), ODA heavy chain; assay: cross-linking
[4] = target: T2, Dyh3 (α-HC), ODA heavy chain; assay: cross-linking

B1: Shulin (Q22YU3), recombinant full-length, C-terminal 2xStrep (natural protein, Tetrahymena thermophila, UniProt Q22YU3 1-1200, looked up)
chain: MFNFFSSANINQNIPKYSVNDFVFRLKKIEKIVVKEGLDGFLLINGVDSRENTEYVKLTNWLFLGNSGLEIEENEYLNQIYSDMIVLIKKGTTHIFIDPEALNSLQTLIYSIPNVDVFCPTEKQYEDKDEMELLKMAFFLRVMKPTKKVGILLGQKDKGKINSIEKWPLIQSYGLEELGVGFFSMNHEVVDLTLRLNAVYKNYDKFFVSKLIYVVAKRLTGHFNSAAGQLGDMKMHKRNLATESQLTEIFRDTYEIEEISKWVQIRGVNAALPKPRVLFGKNTSADCSKEPSVAPLKDLKYSETFHSFHATFETFDLRTCLRAARTYFLAKGVKEERNLITLNDDEGVPQGYELNIDENQQYKDQDFLANLYLSIIIGFNEVMQLITKDYKNMTEEFIQDYIFQKVSKVYAGFQIPESEITLDKIQIILKAYNSFGEEVKIDFKDTISFKLTPYFFMVRIEQKNIKSQILNNTVLGSLVFAESFILQEGCYLLLTKEIPYFDLWNCQNDYSEKIEKMKKRILWEPLGKQISDELPKNRIFVQTGRKSNYGFDIPIMQASYYMHELGLRIETQRLGWFILFFKEMKEIQITQKMNHTWLIFKVDSNITFNSISKDTIALEFTGDALEQSFFKIKNYFEENQIKYEYQVDIPAIFQESQIAKKQILNQQSQGQKLITMNSIQNEQFFISYIESKQLMILNQMKDLKLSAYKNLYEQMQISQAITPVENHIGVILVNGSYCSGKRKFAENLIRFGSDNNLRLHLYKFDLNEMSELTEKSYLSGLLKFASEKKIQNTDVIVASVPHFINTKILIDYFSKSEKISNAFYIRTIATKININNIYSNFNKNPVNNVFTYGVEGYSQFLLLDTYNNYDADVNALNKTLSGVLPGAKIYKIMNNILNPALAKDILTSITFISEQNNLNRLKYSVQYDLLTSNGPSSVVFIPFKLPILREKIRDLIYKKILQNGNQTLVDTIEAEQKIAEFKELNKNSKDPLMIEIIKLKEKIEIQNAQTSDQAIKIDYVKGILRYDSKLKEGLEEITITPNYFIERTVKGVDAKEFTEELNGVSFKNVKYTGITNSIINDMGFVFAGKNLNKEKLLELLYKLVKPLNKQKLRQRKDLTEEEIVDIQFRNRGEGLENGEFYDGQFWRNIQGLILPHHPKKDEFIEEYLKQEEVRINQINEQLQQEWETWKQVYDKIHLDK
[1]
  binding result: binds
[2]
  binding result: binds

B2: Q22MS1, recombinant, C-terminal 2xStrep (natural protein, Tetrahymena thermophila, UniProt Q22MS1 1-1892, looked up)
chain: MFQSYLQDIEKENNSSIYNAQAQQNSSTQQSIWDDYIDRQLEHLVVEYQFDFDKIAQRLAGVIGDKQQQKVNFDTCRQRWKQLHLRRYEDKDKDRLDRVSKSVMKMEDPNNALKVQELVEKLPKARQNKDFLKISDEEKLQAFYLNDKGEKIQPTTFNVLKDSVMGIKDKTERERVFKKQQEEFFKSLEKLAGEQDEDMFTKPLIFRAKFTEPTNFNFIVEREELTREQAQRIMSQKVQIKGAGLVPPEPEMGIKMDNYVSMFARPDEEEEELKKKDQEKEVQVNQQIMQDQQETKEEQERDQEELKKQMELTEEEKKKQQEQEEEKKKINVDLYLAERGLKSIDEALNSLEKMRSKVKVNNYFEEAQTEDKKLKEQKEKNQQKVDNEDQIRQEIIKQGLEQLKQKEQGDQLVQFHENQIKKDIKELNEIIGDNKSKNVKNQTQQPNKAVEEEEEIILEKKNDQSKKVPTKKGIFSQFAEEEDSGSEDEVGNDEEELDDELYLQAQRIGLKSDAEIDLFITKKKEERKANMLNKKKVQFSEFSEQKQISEDTDELLAKQEKQIKQKQQFLEKLKKKSENEAGENDESNQEGSQNWRDLEFSAGMAFKRQLEEEKMQRMIKEQFEEEQRRKADQERIRQIQEEYHLKKLDIETKIKLREPLNLEKVNQEKWKEYIEAQQKRREEIEKEFEEKQRIQTEQEEKEQKENLIKEKIHFFEQKIKNFPSNDPFKCFFDDQVSYLSQISSLPSKITTKIADLKKYDISRDGITSRYQILIFPYLDKCQEFVFQFLSFFLRNSFFRQPPSEKELGEIVSENPLDEIPCQRLSSKGFPFCLVSFYIGSHTSEINDEQDEQYLSNYLNDAIKFDKLINDDKLQKSIYLFFDTYIGRGQDTLSKQLDLALTEFLSDGCLDQAIRKYGEKVINRDMKLSDFKTAYYKNMEIAKKLFNESNTFHSICPTKTSYHQTNQLAIHQNKKKQLLPTSPSNSPSIISHSHGNKWETSVIIIRNYSEIQNPSALRQQQNRGVDFSNASDLMQQDVTTEQYSNLSESLSNLVPSHTEISQRQKQQMTDVIHYTLNKLQEKGIQILGMKSFFFDQKTVQEFKSYVENINFNTNTNQPIVVISVAGFDLHSKLKKMVGSEDAQLAKRVEPNSLNALFSTGRDDSIIIPYNKALSRRLISYFFCGRLEKIQTVQDIQVIEGLTNKKQLYLTKPKPFNPVFLLNSQPIREHICLLSSKFLPQQFCEVIRKIQARGFELLNIRVIDSSNLSAILKKDEDFSAFIENENLQELNSGENDYERINLVLHIQGANISSLRNTLLNKIIDYNPFLHPSKREIFYYTKDDLSLTLLKDIFFNRHIKSNFTPSERFPLFIALWPFLNDYEEKEGLTASQAVPLGNDLKIMSSYGLELLSVSKIFKSQIQQKLNTSIEEETEHVDLKSILHQLIQNNIQINSITKKKPEFSTFCSRLGEEILSQDFYLAVFRYQGDRQSKHLDKLFTEVPFVHSNKTINESTVVTHGAKQTPHTQAKPLPTEFLTLFFLDSSAQQVSNFTKLLGIGAFDDWSFKGSFIFDLPSSGYTGEIETLIILSEDVVKTLLLVGLVKIIENNQFKIKSFFKHRCSREFSEVIQENLLQAFSGYESQMHDQGTKLQKIKASLDNLMTRLQGESMYFLVLSKENGIFNGKKILFELAEKYSVFKKETINVESSTEYMLDKGMYCSLNYKCQQREFKELQFMSQQILSMAHENNQEQQDVDKMYDNQLVMVIRIDQQIQLYEVFRKLQSDLKFKIIHFLVMRQFEWTDIQYISSHFTPKFEAQHIQKYFEINNDGIYCIVHLDSKNSVSLSDAFGTLRLNEKGEFKQVIRSSLFGKQEVFFIYTNNPQHVKKLSAYAFKSSE
[3]
  binding result: binds
[4]
  binding result: binds
